Biological target: horseradish peroxidase-conjugated IgG (Wako Pure Chemical Industries, Ltd.)
Assay: protein A immobilized on a platinum microelectrode (-100 mV), incubated with 0.5 mg/ml HRP-conjugated IgG, peroxidase luminescence read by luminometer

## polyhistidine-fused protein A
  amount of luminescence: 1.4e+10 cps

— patent publication US20080096219A1
